Assay results: US20200354449A1 (NBE THERAPEUTICS, published 2020)
Residue numbers refer to the chain shown, from its start.

B1: GK-21D3 (mAb399; mAb417) (antibody, human IgG1)
heavy: not shown
light: DIQLTQSPSSLSASIGDRVTITCRASQGISNYLAWYQQKPGKVPKLLIYAASTLQSGVPSRFSGSGSGTDFTLTISSLQPEDVSTYYCQKYNSAPWTFGQGTKVDIKRTVAAPSVFIFPPSDEQLKSGTASVVCLLNNFYPREAKVQWKVDNALQSGNSQESVTEQDSKDSTYSLSSTLTLSKADYEKHKVYACEVTHQGLSSPVTKSFNRGECGGGGGSLPETG
notes: also called GK-21D3 (mAb417); MK-21D3; not shown: TwinStrep tag
B2: GK-22G12 (mAb418) (antibody, human IgG1)
heavy: not shown
light: DIVMTQSPSSLSASVGDRVTITCRASQGISNYLAWYQQKPGKVPKLLIYAASTLQSGVPSRFSGSGSGTDFTLTISSLQPEDVSTYYCQKHNRAPWTFGQGTKLEIKRTVAAPSVFIFPPSDEQLKSGTASVVCLLNNFYPREAKVQWKVDNALQSGNSQESVTEQDSKDSTYSLSSTLTLSKADYEKHKVYACEVTHQGLSSPVTKSFNRGECGGGGGLPETG
notes: Human IgG1/kappa; The light chain tag is printed G5LPETG, perhaps a misprint of G5SLPETG; also called MK-22G12; not shown: TwinStrep tag
B3: GK-5A1 (mAb271) (antibody, human IgG1)
heavy: not shown
light: EIVLTQSPSTLSASVGDRVTITCRASQSISSWLAWYQQKPGKAPKLLIYKASSLESGVPSRFSGSGSGTEFTLTISSLQPDDFATYYCQQYNSYWTFGQGTKVDIKRTVAAPSVFIFPPSDEQLKSGTASVVCLLNNFYPREAKVQWKVDNALQSGNSQESVTEQDSKDSTYSLSSTLTLSKADYEKHKVYACEVTHQGLSSPVTKSFNRGECGGGGGSLPETG
notes: Human IgG1/kappa; not shown: Strep tag
B4: GK-5G12 (antibody, human IgG1)
heavy: not shown
light: B1 light with D1E, Q3V, I15V, S84A, W96Y, V104L, D105E
notes: Human IgG1/kappa; the molecule is assigned by the clone name; not shown: Strep tag
B5: GK-6B10 (antibody, human IgG1)
heavy: not shown
light: DIVMTQSPSTLSASVGDRVTITCRASQSIDNWLAWYQQKPGKAPKVLIYKASSLESGVPSRFSGSGSGTEFTLTISSLQPDDFATYYCQQYNSYSYTFGQGTKLEIKRTVAAPSVFIFPPSDEQLKSGTASVVCLLNNFYPREAKVQWKVDNALQSGNSQESVTEQDSKDSTYSLSSTLTLSKADYEKHKVYACEVTHQGLSSPVTKSFNRGECGGGGGSLPETG
notes: as for B4
B6: MK-7C3 (antibody, human IgG1)
heavy: not shown
light: B5 light with D1A, V3R, S28T, D30S, Y36F, T85S, K103R
notes: as for B4
B7: GK-1E5 (mAb270) (antibody, human IgG1)
heavy: not shown
light: B3 light with E1D, V3Q, S93N, D104E
notes: as for B3
B8: GK-2G8 (antibody, human IgG1)
heavy: not shown
light: B3 light with L4M, S93N
notes: as for B4
B9: MK-3B12 (mAb272) (antibody, human IgG1)
heavy: not shown
light: B3 light with E1D, L4M, S93N, D104E
notes: as for B3

The binders below were run against T1, mouse ROR2-TwinStrep (mouse, UniProt Q9Z138 34-403) (assay: ELISA, panel 'mouse ROR2' (mouse ROR2-TwinStrep 2 µg/mL coated), 4-fold dilutions of purified antibody from 2000 ng/mL, HRP anti-human IgG, OD 490 nm).
T1 construct: also called mROR2; murine ROR2; not shown: TwinStrep tag
T1 sequence (Q9Z138 34-403 V372M): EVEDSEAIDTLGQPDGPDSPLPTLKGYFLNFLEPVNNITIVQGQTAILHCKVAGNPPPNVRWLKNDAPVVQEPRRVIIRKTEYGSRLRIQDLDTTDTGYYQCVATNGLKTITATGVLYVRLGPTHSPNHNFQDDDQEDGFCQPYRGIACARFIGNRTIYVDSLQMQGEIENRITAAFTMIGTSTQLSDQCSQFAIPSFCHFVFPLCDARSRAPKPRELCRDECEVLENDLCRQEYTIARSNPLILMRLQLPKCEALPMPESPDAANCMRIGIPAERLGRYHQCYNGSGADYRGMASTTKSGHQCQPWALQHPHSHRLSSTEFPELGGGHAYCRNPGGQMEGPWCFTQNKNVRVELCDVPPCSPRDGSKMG
Experimental: (§1) Binding of antibodies to hROR2, mouse ROR2 (mROR2) and cynomolgus ROR2 (cROR2) was evaluated in an ELISA-based assay. For this, ELISA plates were coated with 50 μL of 2 μg/ml, in sodium bicarbonate coating buffer (0.1M Na₂CO₃, 0.1M NaHCO₃, pH 9.6), of: (a) an anti-human Fc (Jackson Immunoresearch, 109-006-098), (b) hROR2-TwinStrep, (c) cynomolgus ROR2-TwinStrep or (d) mouse ROR2-TwinStrep. Following 1-2-days incubation at 4° C., plates were washed with PBS supplemented with 0.05% (v/v) of Tween 20 and blocked with 150 μL of PBS supplemented with 0.05% (v/v) of Tween 20 and 3% of bovine serum albumin (BSA). Thereafter, 3-fold or 4-fold dilutions of purified antibodies starting at 0.5 or 2 μg/ml, respectively, in PBS supplemented with 1% (w/v) bovine serum albumin (BSA) and 0.05% (v/v) of Tween 20 were added. Following 1 h incubation at 37° C., plates were washed with PBS supplemented with 0.05% (v/v) of Tween 20 prior to addition of HRP-conjugated anti-human IgG (Jackson Immunoresearch, 109-036-008). Following further plate washing, plates were developed with 50 μL of Sigmafast OPD Tablet set (Sigma, P9187) and the reaction stopped by addition of 2M sulfuric acid. Plates were read on an ELISA plate reader (OD 490).
B1: no binding (tested: 2000 ng/mL).
B2: no binding (tested: 2000 ng/mL).

The binders below were run against T1, mouse ROR2-TwinStrep (assay: ELISA, panel 'Coating: Mouse ROR2' (mouse ROR2-TwinStrep 2 µg/mL), 3-fold dilution series of antibody, HRP anti-human IgG, OD 490 nm).
Experimental: as §1
B3: binds.
B4: no binding.
B5: no binding.
B6: no binding.
B7: no binding.
B8: no binding.
B9: no binding.
